Numbering of substitutions follows the chain as printed. Values belong to the molecule of their own block, whether it stands above or below them.
Columns and labels:
[1] = Ca2+-responsive mFAP Ca2+ titrations; type: binding
Experimental: In measuring Ca^2+ affinity of mFAPs on a Synergy Neo2 hybrid multi-mode reader (Fig. 4d, e, f and Supplementary Figs. 10c, f, i, 11c, f, i, 13c, f, i, 16b), large-scale purified proteins[49] were aliquoted in technical triplicate to a final concentration of 500 nM with 5.00 μM DFHBI in eleven serial dilutions ( 10 dilution factor) of CaCl2 (Sigma Aldrich) starting from either 900 mM or 90.0 mM CaCl2 (diluted using high-salt Tev cleavage buffer) including a twelfth condition without CaCl2. Final volumes were 200 μL in flat bottom, black polystyrene, non-binding surface 96-well microplates (Corning 3650). Fluorescence endpoints were measured using excitation wavelength λex = 484 nm and emission wavelength λem = 508 nm. Background fluorescence endpoints of wells with identical chromophore and CaCl2 concentrations lacking protein (substituted for equivalent volumes of high-salt Tev cleavage buffer) were measured in technical triplicate, averaged per condition, and subtracted from protein measurement averages of the same conditions.
For Ca^2+ titrations of EF4n_mFAP2a and EF4n_mFAP2b (Supplementary Fig. 13c), a small amount of Chelex 100 sodium form (Sigma Aldrich) was added to purified protein (produced by large-scale protein purification and SEC purification[49]) and nutated at 4 °C overnight. EF4n_mFAP2a was aliquoted in technical triplicate to a final concentration of 8.00 μM with 80.0 μM DFHBI and EF4n_mFAP2b was aliquoted in technical triplicate to a final concentration of 6.25 μM with 43.4 μM DFHBI, in eleven serial dilutions ( 10 dilution factor) of CaCl2 starting from 9.00 mM or 4.00 mM CaCl2 (diluted using high-salt Tev cleavage buffer pre-treated with Chelex 100) including a twelfth condition without CaCl2. Final volumes were 25.0 μL in flat bottom, black polystyrene, non-binding surface 96-well half-area microplates (Corning 3686) or 200 μL in flat bottom, black polystyrene, non-binding surface 96-well microplates (Corning 3650). Fluorescence endpoints were measured for EF4n_mFAP2a using excitation wavelength λex = 478 nm and emission wavelength λem = 520 nm, and for EF4n_mFAP2b using excitation wavelength λex = 484 nm and emission wavelength λem = 508 nm. Background fluorescence endpoints of wells with identical chromophore and CaCl2 concentrations lacking protein (substituted for equivalent volumes of high-salt Tev cleavage buffer) were measured in technical triplicate, averaged per condition, and subtracted from protein measurement averages of the same conditions. For non-linear least squares fitting to obtain Kd values, means were fit to a single-binding site isotherm function where Ca^2+-binding sites were modeled independently with a Hill coefficient of 1.

[2] = test system: human induced pluripotent stem cell (hiPSC)-derived cardiomyocytes; experiment: Contraction and SR Ca2+ transient imaging of cardiomyocytes; type: cell-based; conditions: SR-targeted; image acquisition ~16.7 Hz
Experimental: hiPSC culture and cardiomyocyte differentiation: Undifferentiated IMR90 human induced pluripotent stem cells (hiPSCs) (WiCell) were maintained in mTeSR-1 (StemCell Technologies) on tissue culture plastic coated with Matrigel diluted 1:60 (Corning) at 37 °C and 5% CO2. Cardiomyocytes were differentiated using a monolayer-based directed differentiation protocol. hiPSCs were dissociated into a single cell suspension using Versene (Life Technologies) and plated at a high density (1.5–2.5·10^5 cells cm^−2) in mTeSR containing 10 µM Y-27632 ROCK inhibitor onto Matrigel-coated plates. Twenty-four hours after plating, media was replaced with fresh mTeSR. […]
Contraction and SR Ca^2+ transient imaging: Leica DMI8 microscope controlled by MetaMorph Imaging software was used to image contraction and Ca^2+ transients of the SR in CMs. […] For mapping contraction, three different ROI traces were hand-drawn, and displacement of cells were measured in the fluorescence channel. […] In order to quantify tissue-level Ca^2+ fluxes during cardiac contraction cycling, fluorescence fold-change over the whole field of view was calculated for each frame then temporally matched with contraction data. Fluorescence fold-change in each frame was calculated by Eq. (11) where F is the fluorescence per frame, and F0 is the fluorescence of the frame with the minimum fluorescence (Fig. 5f and Supplementary Fig. 19b). […]

Circular dichroism = type: physicochemical; conditions: absence of DFHBI
Experimental: Circular dichroism (CD) measurements were recorded at 25 °C in a 1 mm cuvette on an AVIV model 420 CD spectrometer (Biomedical, Inc.). mFAP2 and mFAP2.1 were purified by large-scale protein purification and SEC purification[49] in phosphate-buffered saline (PBS) (25.0 mM phosphate, 150 mM NaCl, pH 7.40), and far-ultraviolet CD wavelength scans recorded from 195 nm to 260 nm. mFAP2 was measured at 0.441 mg mL^−1 and mFAP2.1 at 0.500 mg mL^−1 in Na2HPO4-citrate buffer with pH adjusted to 7.75, 3.96, or 2.93 using NaOH and HCl. The reported data was background-subtracted using buffer only contols (Supplementary Fig. 1b, c).

[3] = pH-sensitivity of β-barrel variants (fluorescence ratio fold-change pH 3.66-7.36); type: biochemical
Experimental: In measuring pH-sensitivity of β-barrel variants (Supplementary Fig. 1f) in technical triplicate, 140 μL of Na2HPO4-citrate (pH 7.36 or 3.66) supplemented with 150 mM NaCl and 1.43 μM DFHBI was combined with 10.0 μL of small-scale purified protein[49] for a final concentration of 1.33 μM DFHBI. Fluorescence endpoints were measured by exciting at λex = 387 nm or λex = 483 nm and measuring fluorescence emission at λem = 501 nm or λem = 504 nm, respectively. Without background subtraction, the fluorescence ratio fold-change from pH 3.66–7.36 was calculated as:2 FluorescenceRatioFold-ChangepH3.66-7.36=FpH3.66λex=387nm,λem=501nm/FpH3.66λex=483nm,λem=504nm/FpH7.36λex=387nm,λem=501nm/FpH7.36λex=483nm,λem=504nm, where FpHλex,λem is the mean of three technical replicates of endpoint fluorescence measurements at the subscripted pH value and superscripted fluorescence excitation (λex) and fluorescence emission (λem) wavelengths.

[4] = Fluorescence intensity of circularly permuted mFAP2a variants; type: biochemical; conditions: equimolar concentration
Experimental: To measure the fluorescence intensities of circularly permuted mFAP2a variants (Supplementary Fig. 22b, d), fluorescence endpoints were measured on a Synergy Neo2 hybrid multi-mode reader (BioTek) in flat bottom, black polystyrene, non-binding surface 96-well microplates (Corning 3650) or half-area microplates (Corning 3686). Fluorescence endpoints were measured in technical triplicate by exciting at λex = 488 nm and measuring fluorescence emission at λem = 510 nm (Supplementary Fig. 22b), or exciting at λex = 468 nm and measuring fluorescence emission at λem = 530 nm (Supplementary Fig. 22d). […]

Ca2+-responsiveness / allostery between DFHBI and Ca2+ binding ([1]; Ca2+ titration with excess DFHBI): negative allostery | Kd ([1]; excess DFHBI compared to protein, Hill coefficient of 1): 260 µM
B1: EF1n_mFAP2b: negatively allosteric Ca2+-responsive mFAP, one EF-hand motif (protein)
chain: SRAAQLLPGTWQVTMTNEDGQTSQGQWHFQPRSPYTMDIVAQGTISDGRPIVGYGKATVKTPDTLDIDITYPSLGNIKAQGQITMDSPTQFKWDAHVDKDGDGYISAAEAAAQTKILTGTLQRQE
response time to Ca2+ fluxes [2]: less than 60 ms

B2: mFAP2.1: mFAP2 mutational variant (protein)
chain: SRAAQLLPGTWQVTMTNEDGQTSQGQMHFQPRSPYTMDVVAQGTISDGRTIVGYGKVTVKTPDTLDVDITYPSLGNIKAQGQITMDSPTQFKFDATTKGAGNFTGRLTGTLQRQE
stability by circular dichroism compared to mFAP2 (Circular dichroism): improved stability at pH 2.93

B3: mFAP2.2: most pH-responsive mutant of SDM library (protein)
chain: B2 chain with T50P
fluorescence ratio fold-change from pH 3.66–7.36, higher than mFAP2.1 [3]: ~ 1.3 fold

B4: cp35-34_mFAP2a_12: brightest cpmFAP tested, de novo designed α-helical linker (protein)
chain: QEMDIVAQGTISDGRPIVGYGKATVKTPDTLDIDITYPSLGNIKAQGQITMDSPTQFKWDATTKGENDFHGRLTGTLQRTEEAKEATEEARRRGITTQAAQLLPGTWQATFTNEDGQTSQGQWHFQPRDG
fluorescence intensity relative to mFAP2a [4]: ~ 93%
